Test results published in US20110300138A1 (published 2011).

Assays:
[1] = target: T1, full length human TSHR, detergent-solubilised, coated on tubes or ELISA plate wells (human, UniProt P16473 22-764); experiment: Scatchard analysis, 125I-labelled antibody on full length TSHR coated tubes (mean±SD, n=3)
T1 construct: Full length receptor expressed in CHO cells, solubilised with detergent and held on the plastic by a mouse MAb to the C-terminus; The leader 1-21 is stated for the TSHR260 construct of the same receptor; also called TSH receptor; TSHR (full length)

[2] = target: T1, full length human TSHR, …; experiment: inhibition of 125I-TSH binding to TSHR coated tubes, dilutions in HBD sera
[3] = target: T1, full length human TSHR, …; experiment: inhibition of 125I-TSH binding to TSHR coated tubes, dilutions in assay buffer
Description: Binding inhibition assays were carried out using TSHR coated tubes as described in WO2004/050708A2. […] After aspiration, the tubes were washed and 100 μL of ¹²⁵I-labelled protein (5×10⁴ cpm) added and incubated for 1 hour at room temperature with shaking. The tubes were then aspirated, washed and counted in a gamma counter. Inhibition of labelled protein binding was calculated as 100×[1−(cpm bound in the presence of test material/cpm bound in the presence of control material)].

TSHR260 = target: T2, TSHR260 (human, UniProt P16473 22-260); experiment: Scatchard analysis, TSHR260 coated tubes (mean±SD, n=3)
T2 construct: Expressed in insect cells; coated on tubes or wells by way of a mouse TSHR MAb (14C4 F(ab')2 in the stability ELISA); also called TSHR fragment of amino acids 22-260

[4] = target: human TSHR on transfected CHO cells (human, UniProt P16473 22-764); experiment: cell-based or functional assay

B1: K1-18 IgG (antibody, V domains shown)
VH: EVQLVQSGAEVKKPGESLKISCKGSGYSFTNYWIGWVRQMPGKGLEWMGIIYPYDSDTRYSPSFEGQVTISADKSIRTAYLHWSSLKASDTAMYYCVRPRDGSYPYDAFDIWGQGTMVTVSS
VL: EIVLTQSPGTLSLSPGERATLSCRASQSVSNNYLAWYQQKPGQAPRLLIYGASSRATGIPDRFSGSGSGTDFTLTISRLEPEDFAVYYCQHCGSSLRAFGQGTKVEIKR
notes: Human IgG1 kappa purified from hetero-hybridoma supernatant; also called human MAb K1-18
Ka [1]: 6.7e+09 M⁻¹
fold activity in inhibition of TSH binding against K1 donor serum IgG [2]: 6600 times
fold activity in inhibition of TSH binding against K1 donor serum IgG [3]: 4700 times
Ka (TSHR260): 5.9e+09 M⁻¹
potency of TSHR cyclic AMP stimulation, M22 against K1-18 [4]: ~1.5 fold
